According to publication PMC10278182 (2023):
Blank lines part the entries; values can stand above or below the binder they belong to.

What was measured:
[1] = target: T1, WD40 repeat protein 5 truncation mutant lacking residues 1-22 (WDR5ΔN) (UniProt P61964 23-334); test: medium-lived events (koff-2), event durations
[2] = target: T1, WD40 repeat protein 5 truncation mutant …; test: short-lived events (koff-1), event durations
[3] = target: T1, WD40 repeat protein 5 truncation mutant …; test: medium-lived events (koff-2), 0.5 [WDR5]
[4] = target: T1, WD40 repeat protein 5 truncation mutant …; test: short-lived events (koff-1), 0.5 [WDR5]
[5] = target: T1, WD40 repeat protein 5 truncation mutant …; test: medium-lived events (koff-2), 2 [WDR5]
[6] = target: T1, WD40 repeat protein 5 truncation mutant …; test: short-lived events (koff-1), 2 [WDR5]
[7] = target: T1, WD40 repeat protein 5 truncation mutant …; test: medium-lived events (koff-2), 1 [WDR5]
[8] = target: T1, WD40 repeat protein 5 truncation mutant …; test: short-lived events (koff-1), 4 [WDR5]
[9] = target: T1, WD40 repeat protein 5 truncation mutant …; test: short-lived events (koff-1), 1 [WDR5]
[10] = target: T1, WD40 repeat protein 5 truncation mutant …; test: long-lived events (koff-3), 2 [WDR5]
[11] = target: T1, WD40 repeat protein 5 truncation mutant …; test: long-lived events (koff-3), event durations
[12] = target: T1, WD40 repeat protein 5 truncation mutant …; test: medium-lived events (koff-2), 4 [WDR5]
[13] = target: T1, WD40 repeat protein 5 truncation mutant …; test: long-lived events (koff-3), 4 [WDR5]
[14] = target: T1, WD40 repeat protein 5 truncation mutant …; test: long-lived events (koff-3), 0.5 [WDR5]
[15] = target: T1, WD40 repeat protein 5 truncation mutant …; test: long-lived events (koff-3), 1 [WDR5]
[16] = target: T1, WD40 repeat protein 5 truncation mutant …; test: short-lived events (koff-1), 1 [WDR5]; remark: listed apart in the source
[17] = target: T1, WD40 repeat protein 5 truncation mutant …; test: medium-lived events (koff-2), 4 [WDR5]; remark: listed apart in the source
[18] = target: T1, WD40 repeat protein 5 truncation mutant …; test: short-lived events (koff-1), 4 [WDR5]; remark: listed apart in the source
[19] = target: T1, WD40 repeat protein 5 truncation mutant …; test: long-lived events (koff-3), 1 [WDR5]; remark: listed apart in the source
[20] = target: T1, WD40 repeat protein 5 truncation mutant …; test: long-lived events (koff-3), 4 [WDR5]; remark: listed apart in the source
[21] = target: T1, WD40 repeat protein 5 truncation mutant …; test: medium-lived events (koff-2), 1 [WDR5]; remark: listed apart in the source
[22] = target: T1, WD40 repeat protein 5 truncation mutant …; test: long-lived events (koff-3), 0.5 [WDR5]; remark: listed apart in the source
[23] = target: T1, WD40 repeat protein 5 truncation mutant …; test: short-lived events (koff-1), 0.5 [WDR5]; remark: listed apart in the source
[24] = target: T1, WD40 repeat protein 5 truncation mutant …; test: medium-lived events (koff-2), 2 [WDR5]; remark: listed apart in the source
[25] = target: T1, WD40 repeat protein 5 truncation mutant …; test: long-lived events (koff-3), 2 [WDR5]; remark: listed apart in the source

koff [1]: 9.2 s⁻¹
koff [2]: 86 s⁻¹
Binder: MGDRGPEFELGTMLNPHGAARAEVYLRGGSGGS (other) [O(GGS)2 nanopore sensor (adaptor O - MLL4Win - (GGS)2 tether - tFhuA)]

koff [3]: 8.9 s⁻¹
koff [4]: 84 s⁻¹
koff [5]: 9.9 s⁻¹
koff [6]: 87 s⁻¹
koff [1]: 9.9 s⁻¹
koff [7]: 9.4 s⁻¹
koff [8]: 81 s⁻¹
koff [9]: 91 s⁻¹
koff [10]: 0.77 s⁻¹
koff [11]: 0.77 s⁻¹
koff [12]: 9.5 s⁻¹
koff [13]: 0.79 s⁻¹
koff [2]: 87 s⁻¹
koff [14]: 0.84 s⁻¹
koff [15]: 0.77 s⁻¹
Binder: MGDRGPEFELGTMLNPHGAARAEVYLRGGSGGSGGSGGS (other) [O(GGS)4 nanopore sensor (adaptor O - MLL4Win - (GGS)4 tether - tFhuA)]

koff [1]: 20 s⁻¹
koff [16]: 159 s⁻¹
koff [17]: 21 s⁻¹
koff [18]: 167 s⁻¹
koff [11]: 0.77 s⁻¹
koff [19]: 0.78 s⁻¹
koff [20]: 0.73 s⁻¹
koff [21]: 23 s⁻¹
koff [22]: 0.77 s⁻¹
koff [23]: 178 s⁻¹
koff [24]: 20 s⁻¹
koff [25]: 0.77 s⁻¹
Binder: MGDRGPEFELGTMLNPHGAARAEVYLRPAPAPAPAPAPA (other) [O(PA)6 nanopore sensor (adaptor O - MLL4Win - (PA)6 tether - tFhuA)]

koff [1]: 34 s⁻¹
koff [2]: 210 s⁻¹
Binder: MGDRGPEFELGTMLNPHGAARAEVYLRPAPAPA (other) [O(PA)3 nanopore sensor (adaptor O - MLL4Win - (PA)3 tether - tFhuA)]
